Molecular target: the molecule itself
Assay: non-reducing SDS-PAGE of immunoprecipitated His-WARP

B1: His-tagged full-length mouse WARP expressed in 293-EBNA cells (other)
chain: RSSHHHHHHIERGSTASDPQGDLLFLLDSSASVSHYEFSRVREFVGQLVATMSFGPGALRASLVHVGSQPHTEFTFDQYSSGQAIRDAIRVAPQRMGDTNTGLALAYAKEQLFAEEAGARPGVPKVLVWVTDGGSSDPVGPPMQELKDLGVTIFIVSTGRGNLLELLAAASAPAEKHLHFVDVDDLPIIARELRGSITDAMQPQQLHASEVLSSGFRLSWPPLLTADSGYYVLELVPSGKLATTRRQQLPGNATSWTWTDLDPDTDYEVSLLPESNVHLLRPQHVRVRTLQEEAGPERIVISHARPRSLRVSWAPALGPDSALGYHVQLGPLQGGSLERVEVPAGQNSTTVQGLTPCTTYLVTVTAAFRSGRQRALSAKACTASGARTRAPQSMRPEAGPREP
modifications: N-linked oligosaccharide (one or more; candidate sites Asn264 and Asn359)
notes: also called His-WARP; WARP-His
binding result: binds

Source: patent US20040214349A1 (MURDOCH CHILDRENS RESEARCH INSTITUTE ROYAL CHILDREN S …, published 2004)
